Assay [1] concerns the target C-terminal RFP labeled ATG9.
The target of assay [2] is T1, canine COX-3 (Canis lupus familiaris, UniProt Q8HZR1).
T1 sequence (Q8HZR1 1-633 isoform Q8HZR1-2): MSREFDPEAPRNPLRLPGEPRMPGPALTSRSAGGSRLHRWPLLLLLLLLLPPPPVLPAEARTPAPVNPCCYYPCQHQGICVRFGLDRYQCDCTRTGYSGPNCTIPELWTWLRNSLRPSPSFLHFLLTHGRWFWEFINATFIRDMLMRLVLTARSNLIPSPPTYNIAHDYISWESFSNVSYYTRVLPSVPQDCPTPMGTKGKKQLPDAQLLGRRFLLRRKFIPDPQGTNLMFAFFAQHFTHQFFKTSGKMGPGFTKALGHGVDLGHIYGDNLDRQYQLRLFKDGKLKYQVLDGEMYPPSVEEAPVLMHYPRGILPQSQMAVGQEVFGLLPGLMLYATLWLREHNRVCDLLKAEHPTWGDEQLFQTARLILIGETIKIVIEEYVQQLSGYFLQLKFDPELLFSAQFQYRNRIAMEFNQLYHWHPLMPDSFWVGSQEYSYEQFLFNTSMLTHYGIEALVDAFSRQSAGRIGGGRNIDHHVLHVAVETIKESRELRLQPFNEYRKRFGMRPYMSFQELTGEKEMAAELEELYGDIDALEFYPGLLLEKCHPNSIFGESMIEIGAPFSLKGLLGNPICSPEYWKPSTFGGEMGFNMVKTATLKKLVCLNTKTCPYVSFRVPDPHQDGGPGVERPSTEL
As to conditions: cited from earlier work.

The subject of assay [3] is encephalomyocarditis virus (EMCV). The experiment in a line: EMCV replication in transfected CHO cells, plaque-forming assay. To be noted: compared to Empty vector. Format: cell-based. The source says: The rCOX constructs being related to ancient unicellular COX and evidence showing their involvement in the formation of innate immune responsive autophagic structures. EMCV is a positive strand RNA picornavirus implicated in human febrile illness. Also, the mTOR small molecule inhibitor rapamycin is shown to stimulate protein synthesis of EMCV proteins (Ref) and that autophagy specifically is shown to promote EMCV viral replication. We infected rCOX or/and cNuc transfected/co-transfected CHO cells with EMCV to determine their influence in viral replication. The media was collected and plaque forming assays were then performed and plaques were counted compared to Empty vector plaque counts.
CHO cells were seeded to the night before infection to complete confluence. Cells were washed twice with DMEM F/12 media before infection. Virus were placed on top of cells and allowed to absorb for 1 hour angling the cells every 10 minutes to ensure cells were fully covered. After adsorption the media was remove and cells washed twice with DMEM F/12 media. Agar at 2% in PBS was melted and mixed with warm DMEM/F12 with 20% FBS and then laid on top of the cells. The virus was allowed to replicate for 36 hours and then 5 mg/mL of MTT in PBS was added to visualize the cells. Plaques were counted using light microscope.

The molecule “FLAG tagged rc44 (translationally recoded rat COX-3 44 kD protein) (from UniProt Q63921) (enzyme)” had a co-localisation by confocal microscopy (Pearson coefficient) (Pearson coefficient) in assay [1] of 0.928.

In the case of `CC(=O)Nc1ccc(O)cc1` [acetaminophen], the “effect on canine COX-3” value in assay [2] is “specifically inhibited”. For the molecule “FLAG tagged rc57 (translationally recoded rat COX-3 57 kD protein) (from UniProt Q63921) (enzyme)”, the co-localisation by confocal microscopy (Pearson coefficient) (Pearson coefficient) in assay [1] worked out at 0.973.

In turn, “FLAG tagged rc50 (translationally recoded rat COX-3 50 kD protein) (from UniProt Q63921) (enzyme)” came in with a co-localisation by confocal microscopy (Pearson coefficient) (Pearson coefficient) in assay [1] of 0.954.

B1: r57: translationally recoded 57 kD rat COX-3 protein, expressed by transfection in CHO cells (protein)
chain: MRLVITVRSNLIPSPPTYNTAHDYISWESFSNVSYYTRILPSVPKDCPTPMGTKGKKQLPDIHLLAQRLLLRREFIPGPQGTNVLFAFFAQHFTHQFFKTSGKMGPGFTKALGHGVDLGHIYGDSLERQYHLRLFKDGKLKYQVLDGEVYPPSVEQASVLMRYPPGVPPEKQMAVGQEVFGLLPGLMLFSTIWLREHNRVCDLLKEEHPTWDDEQLFQTTRLILIGETIKIIIEEYVQHLSGYFLQLKFDPELLFRAQFQYRNRIALEFNHLYHWHPLMPDSFQVGSQEYSYEQFLFNTSMLVDYGVEALVDAFSRQRAGRIGGGRNFDYHVLHVAEDVIKESREMRLQSFNEYRKRFGLKPYTSFQEFTGEKEMAAELEELYGDIDALEFYPGLMLEKCQPNSLFGESMIEMGAPFSLKGLLGNPICSPEYWKPSTFGGDVGFNIVNTASLKKLVCLNTKTCPYVSFRVPDYPGDDGSVFVRPSTEL
Consider B1, for which the “inhibition of virion production” value in assay [3] amounted to 40%.

B2: r44: translationally recoded 44 kD rat COX-3 protein, expressed by transfection in CHO cells (protein)
chain: MGPGFTKALGHGVDLGHIYGDSLERQYHLRLFKDGKLKYQVLDGEVYPPSVEQASVLMRYPPGVPPEKQMAVGQEVFGLLPGLMLFSTIWLREHNRVCDLLKEEHPTWDDEQLFQTTRLILIGETIKIIIEEYVQHLSGYFLQLKFDPELLFRAQFQYRNRIALEFNHLYHWHPLMPDSFQVGSQEYSYEQFLFNTSMLVDYGVEALVDAFSRQRAGRIGGGRNFDYHVLHVAEDVIKESREMRLQSFNEYRKRFGLKPYTSFQEFTGEKEMAAELEELYGDIDALEFYPGLMLEKCQPNSLFGESMIEMGAPFSLKGLLGNPICSPEYWKPSTFGGDVGFNIVNTASLKKLVCLNTKTCPYVSFRVPDYPGDDGSVFVRPSTEL
For the molecule B2, the “number of EMCV virions” value in assay [3] is recorded as “doubled”.

The record behind these values is US20150184159A1, “USE OF COX-3 BINDING MOLECULES FOR MODULATING AUTOPHAGY” (priority 2013, published 2015).
